Here are results for one molecule from publication PMC7531572.

In the assay the target is mAb1 wild-type (monoclonal antibody IgG1) (human). As to the kind of experiment: SPR.

B1: recombinant mouse FcγRIV (receptor)
chain: GLQKAVVNLDPKWVRVLEEDSVTLRCQGTFSPEDNSIKWFHNESLIPHQDANYVIQSARVKDSGMYRCQTALSTISDPVQLEVHMGWLLLQTTKWLFQEGDPIHLRCHSWQNRPVRKVTYLQNGKGKKYFHENSELLIPKATHNDSGSYFCRGLIGHNNKSSASFRISLGDPGSPSMFPPWHQ
Turning to B1, the % of maximal binding response of wild-type antibody was found to be 100%.
